{"source": "paper PMC6287933", "about": "(Methods in enzymology, 2018)", "binders": {"B1": {"name": "Methylobacterium extorquens (Mex) PqqD (domain or fragment, Methylobacterium extorquens AM1, UniProt Q49150 280-372, looked up)", "chain": "EPTAFSGSDVPRLPRGVRLRFDEVRNKHVLLAPERTFDLDDNAVAVLKLVDGRNTVSQIAQILGQTYDADPAIIEADILPMLAGLAQKRVLER"}}, "target": "T1, Methylobacterium extorquens (Mex) PqqE (Methylobacterium extorquens, UniProt P71517 1-384)", "T1 sequence (looked up)": "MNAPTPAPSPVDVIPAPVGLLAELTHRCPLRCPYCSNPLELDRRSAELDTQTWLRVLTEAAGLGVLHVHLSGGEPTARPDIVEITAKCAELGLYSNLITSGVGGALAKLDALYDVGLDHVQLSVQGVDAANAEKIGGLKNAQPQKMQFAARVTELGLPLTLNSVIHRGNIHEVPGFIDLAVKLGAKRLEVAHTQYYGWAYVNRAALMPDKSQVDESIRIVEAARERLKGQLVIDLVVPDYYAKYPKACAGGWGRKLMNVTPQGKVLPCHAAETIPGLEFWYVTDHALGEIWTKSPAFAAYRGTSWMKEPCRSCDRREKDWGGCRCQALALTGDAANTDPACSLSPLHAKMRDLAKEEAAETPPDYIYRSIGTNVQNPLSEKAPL", "assay": "native MS"}
{"binder": "B1", "values": [{"measurement": "stoichiometry N", "result": 1}]}
